This note sets out measurements from PMC5884726 (Structure (London, England : 1993), 2018).

For the assay, the target named is (UreABC)3 urease apoprotein (Klebsiella aerogenes, UniProt P18316 1-100; P18315 1-106; P18314 1-567). The assay can be described thus: native MS.
Chain of (UreABC)3 urease apoprotein (P18316 whole entry, chain 1 of 3): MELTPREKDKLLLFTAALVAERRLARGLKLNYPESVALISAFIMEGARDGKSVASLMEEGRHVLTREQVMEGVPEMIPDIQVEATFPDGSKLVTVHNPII
Chain of (UreABC)3 urease apoprotein (P18315 whole entry, chain 2 of 3): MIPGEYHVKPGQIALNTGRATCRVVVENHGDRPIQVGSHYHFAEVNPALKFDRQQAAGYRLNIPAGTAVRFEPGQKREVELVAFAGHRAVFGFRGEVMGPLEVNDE
Chain of (UreABC)3 urease apoprotein (P18314 whole entry, chain 3 of 3): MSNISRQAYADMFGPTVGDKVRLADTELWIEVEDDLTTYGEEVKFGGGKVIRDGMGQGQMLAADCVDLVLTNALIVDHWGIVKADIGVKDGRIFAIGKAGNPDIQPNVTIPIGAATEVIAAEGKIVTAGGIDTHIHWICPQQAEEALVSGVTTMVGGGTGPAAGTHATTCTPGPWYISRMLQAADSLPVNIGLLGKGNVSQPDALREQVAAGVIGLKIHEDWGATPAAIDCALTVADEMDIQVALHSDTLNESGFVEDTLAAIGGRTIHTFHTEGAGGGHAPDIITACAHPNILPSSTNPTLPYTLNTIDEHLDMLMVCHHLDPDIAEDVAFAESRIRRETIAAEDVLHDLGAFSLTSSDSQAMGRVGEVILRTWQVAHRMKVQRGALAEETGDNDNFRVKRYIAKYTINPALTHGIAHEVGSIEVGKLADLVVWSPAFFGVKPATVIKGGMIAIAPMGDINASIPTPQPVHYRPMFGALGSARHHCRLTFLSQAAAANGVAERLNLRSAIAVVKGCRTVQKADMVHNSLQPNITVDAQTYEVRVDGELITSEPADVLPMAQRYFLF

B1: maltose binding protein-UreD fusion protein (MBP-UreD) (natural protein, Klebsiella aerogenes, UniProt Q09063 1-270, looked up)
chain: MLPPLKKGWQATLDLRFHQAGGKTVLASAQHVGPLTVQRPFYPEEETCHLYLLHPPGGIVGGDELTISAHLAPGCHTLITMPGASKFYRSSGAQALVRQQLTLAPQATLEWLPQDAIFFPGANARLFTTFHLCASSRLLAWDLLCLGRPVIGETFSHGTLSNRLEVWVDNEPLLVERLHLQEGELSSIAERPWVGTLLCYPATDALLDGVRDALAPLGLYAGASLTDRLLTVRFLSDDNLICQRVMRDVWQFLRPHLTGKSPVLPRIWLT
As for B1, the binding result is on record as “binds”.
